From patent US5621079A, “Neuropeptide Y receptor” (Merck & Co., Inc., priority 1995, dated 1997)

Target: T1, murine NPY Yx receptor (Mus musculus, UniProt Q61212)
T1 construct: identified a 371 amino acid open reading frame; expressed in transfected cells; host or cells: COS-7 cells, transient (pcDNA3 vector pVE2863), membranes
T1 sequence (Q61212 1-371): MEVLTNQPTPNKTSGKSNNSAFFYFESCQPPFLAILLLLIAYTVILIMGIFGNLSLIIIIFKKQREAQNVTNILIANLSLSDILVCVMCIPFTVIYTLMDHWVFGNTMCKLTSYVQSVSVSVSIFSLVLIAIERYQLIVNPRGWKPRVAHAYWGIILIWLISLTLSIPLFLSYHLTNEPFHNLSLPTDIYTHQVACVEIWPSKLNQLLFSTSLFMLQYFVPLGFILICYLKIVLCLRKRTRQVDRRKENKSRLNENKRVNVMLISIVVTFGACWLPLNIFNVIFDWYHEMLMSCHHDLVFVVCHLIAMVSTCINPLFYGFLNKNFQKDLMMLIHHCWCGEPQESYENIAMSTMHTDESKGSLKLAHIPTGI
Assay: 125I-PYY competition binding to membranes of COS-7 cells transfected with the murine NPY Yx receptor
Settings: COS-7 membranes (50 μg protein), 125I-PYY 90 pM, 2 hours at room temperature; read-out: IC50 (concentration of peptide causing 50% inhibition of 125I-PYY binding)
Experimental: Using electroporation, COS-7 cells were transfected with the pcDNA3 expression vector containing the genomic DNA for the murine NPY Yx receptor (pVE2863). Two days post transfection, cells were dissociated with enzyme-free dissociation buffer, centrifuged at 1000 rpm for 10 minutes at 4° C., and resuspended in 10 mM Tris, pH 7.4 containing […] (phenylmethylsulfonyl fluoride), 10 μM phosphoramidon, and 40 μg/ml bacitracin. The cell suspension was homogenized with a glass homogenizer, and centrifuged at 2200 rpm for 10 minutes at 4° C. to remove cell debris. The plasma membrane fraction was recovered by centrifuging the supernatant at 18,000 rpm in a Sorvall SS-34 rotor for 15 minutes at 4° C. The membrane pellet was resuspended in the Tris/PMSF/phosphoramidon/bacitracin buffer by trituration 5 times using a 25 g needle and syringe. The membranes were stored frozen at -80° C. until use.
After 2 hours at room temperature, the incubation was filtered over GF/C filters, and the radioactivity bound to the filters was quantified with a Packard gamma counter.

Substance	IC50 [nM]
Neuropeptide Y [NPY]	6
NPY13-36 [NPY(13-36)]	134
[Leu31, Pro34]NPY [[Leu^31, Pro^34]NPY]	9
NPY2-36 [NPY(2-36)]	16
